What all share (format): in vivo
Assay [1] deals with transgenic cotton plants. In words: Mesotrione treatment of cotton plants expressing TDO variants, crop injury. The following applies: Under 80° F., R2 cotton sprayed at V3. The protocol: Cotton is a crop of interest that is often exposed to high temperature growing conditions and thus, selected TDO variants were tested in cotton. Three TDO variants, D08, TDO_6, and TDO_8 were transformed into cotton (along with the Os.TDO control) using similar expression elements in single-cassette vectors or as part of multi-cassette vectors. R2 transgenic cotton plants were then screened for tolerance to mesotrione. Sixteen plants from two events each per construct were sprayed with two rates (2X and 8X) of mesotrione at V3 stage under normal (80° F.) and hot (100° F.) growing conditions. In addition, the effect of heat treatment on TDO accumulation in cotton plants were measured by ELISA. Cotton plants were planted and grown under normal greenhouse conditions (80° F. day/70° F. night) until V3 growth stage. Half of the plants were then moved to a higher temperature growth chamber (100° F. day/82° F. night) for the heat treatment, whereas the remaining half of the plants stayed in the same greenhouse (80° F. day/70° F. night). At day 3 after the plants were placed under different temperature conditions, leaf samples were collected for TDO protein measurement. The plants in 100° F. growth chamber and in 80° F. greenhouse were both sprayed with 2X mesotrione (210 g a.i./ha). Leaf samples were collected again 7 days after mesotrione treatment (DAT: Days After Treatment) for protein assay. Table 5 compares protein levels of the TDO variants in transgenic cotton plants grown under the two tested conditions. The protein levels for the TDO variants were measured at three time points for plants: 1) just before entering the high temperature treatment, 2) three days following placement into control (normal growth temperature) or high temperature (100° F.), and 3) 7 days after a 2X mesotrione spray.

In assay [2] the test system is transgenic soybean plants. The assay is described as follows: Mesotrione tolerance assay of Os.TDO transgenic soybean events (Construct 32). The note with it: for injury rate: sprayed at V1, rated 13 days after treatment. From the text: Mesotrione herbicide rate is expressed as grams active ingredient per hectare (g a.i./ha); 1X commercial rate=105 g a.i./ha. […] Plants at V1 growth stage were sprayed with mesotrione (in Callisto®, Syngenta in 1% crop oil) at 1X, 2X, 4X, 8X, and 16X of commercial rate (equivalent to 105, 210, 420, 840, and 1680 g a.i./ha, respectively). Crop injury ratings were taken 13 days after mesotrione treatment.
Os.TDO transgenic event-125 and wild-type control plants were sprayed with 2X of commercial rate of mesotrione (Callisto, 210 g a.i./ha), tembotrione (Laudis, 184 g a.i./ha) and sulcotrione (Sulcogan, 660 g a.i./ha). Each bar represents the mean of injury rating of 8 reps +/−SE. * indicates significant difference vs corresponding control at p<0.01.
The Os.TDO sequence was cloned into a set of binary vectors using standard cloning methods known in the art with its expression driven by different constitutive promoters and different 3′UTRs. Transgenic soybean plants comprising these constructs were developed using an Agrobacterium-mediated transformation system as described in Larue et al. (2020). The copy number of the transgene was determined via a Taqman assay and events with a single copy of the T-DNA insertion were selected for evaluation of mesotrione tolerance. Briefly, R2 and later generation homozygous lines of three soybean transgenic events derived from Construct 32 were selected for a mesotrione tolerance greenhouse assay. Construct 32 contained two expression cassettes between the T-DNA borders: one for expression of Os.TDO and the other for expression of a selectable marker. The Os.TDO cassette utilized the cauliflower mosaic virus (CaMV) 35S promotor and the 5′ UTR of HSP70 from petunia to drive expression of Os.TDO, followed by the 3′ UTR of the nopaline synthase (nos) gene from the T-DNA region of the Ti plasmid of Agrobacterium tumefaciens, which functions to direct polyadenylation of the mRNA. The selectable marker cassette conferring spectinomycin and streptomycin resistance comprises the promoter, intron, and leader sequences from the Arabidopsis thaliana actin 7 gene, the transit peptide region of Arabidopsis thaliana EPSPS, the coding region of the Tn7 adenylyltransferase (AAD (3″)) gene from E. coli, and the 3′ non-translated region from the Agrobacterium tumefaciens nopaline synthase gene.
Each plant was grown in a 3.5″ pot with soybean potting media in a growth chamber under conditions of 28° C./24° C. (light/dark) and a photoperiod of 16 hr light at 700 μE/8 hr dark, and fertilized with Peters general purpose fertilizer. Eight plants at V1 growth stage were sprayed with mesotrione (in Callisto®, Syngenta in 1% crop oil) at 1X, 2X, 4X, 8X, and 16X of commercial rate (equivalent to 105, 210, 420, 840, and 1680 g active ingredient/ha, respectively). Crop injury ratings were taken 13 days after mesotrione treatment.

For assay [3], the system named is transgenic soybean plants. The assay is described as follows: Mesotrione injury of R0 transgenic soybean plants expressing TDO homologs. The note with it: promoter Constitutive 2, 3' UTR B; 210 g a.i./ha mesotrione at V3-V4, rated 7-14 days after treatment; mean of all tested events. The protocol: Plant expression vectors comprising the selected TDO homologs under the control of one of two constitutive promoters were transformed into soybean via an Agrobacterium tumefaciens-mediated method. Following Agrobacterium transformation, R0 transgenic soybean plants containing a single copy of the transgene were identified through molecular characterization and segregation analysis. Transgenic and wild-type (control) plants were grown in 6-inch pots filled with BM7 soilless mix in a growth chamber under the conditions of 28° C./23° C. (light/dark) and a 16 hr light/8 hr dark photoperiod. Plants were fertilized with 15-5-15 liquid fertilizer at the V3-V4 growth stage and treated with 210 g a.i./ha mesotrione (1X=105 g a.i./ha; Callisto®, Syngenta in 1% crop oil). Plants were visually rated 7-14 days after treatment on a scale of 0% to 100%, with 0%=no injury and 100%=plant death, relative to the wild-type controls. The results summarized in Table 2 represent the mean of all tested events (10-15) for each construct.

B1: Os.TDO: TDO from Oryza sativa (HIS1), SEQ ID NO:2, polynucleotide codon optimized for dicot expression (protein, listed as Oryza sativa)
chain: MADESWRAPAIVQELAAAGVEEPPSRYLLREKDRSDVKLVAAELPEPLPVVDLSRLDGAEEATKLRVALQNWGFFLLTNHGVEASLMDSVMNLSREFFNQPIERKQKFSNLIDGKNFQIQGYGTDRVVTQDQILDWSDRLHLRVEPKEEQDLAFWPDHPESFRDVLNKYASGTKRIRDDIIQAMAKLLELDEDYFLDRLNEAPAFARFNYYPPCPRPDLVFGIRPHSDGTLLTILLVDKDVSGLQVQRDGKWSNVEATPHTLLINLGDTMEVMCNGIFRSPVHRVVTNAEKERISLAMLYSVNDEKDIEPAAGLLDENRPARYRKVSVEEFRAGIFGKFSRGERYIDSLRI
Consider B1, for which the “Crop Injury (%), 210 g/ha (2X) Mesotrione” value in assay [1] is reported as 0%. In addition, in assay [1], the “Crop Injury (%), 840 g/ha (8X) Mesotrione” value is listed as 0%. Besides, the tolerance to sulcotrione entry in assay [2] (2X commercial rate sulcotrione (Sulcogan, 660 g a.i./ha), event-125) is “provided tolerance”. The tolerance to tembotrione result in assay [2] (2X commercial rate tembotrione (Laudis, 184 g a.i./ha), event-125) is on record as “provided tolerance”. Also, the injury rate result is “below 15%” in assay [2] (mesotrione 16X (1680 g a.i./ha)) and “lower than 10%” in assay [2] (mesotrione at 8X or lower rate (1X=105 g a.i./ha), three transgenic events). Further, the tolerance to mesotrione result in assay [2] (up to 16X of commercial application rate (1X=105 g a.i./ha)) was “excellent tolerance”. Moreover, the “% Injury” value in assay [3] is reported as 12%.

Source of the values: US20250134019A1, “TRIKETONE DIOXYGENASE VARIANTS FOR HERBICIDE TOLERANCE” (Monsanto Technology LLC, priority 2022, published 2025).
